T1: full-length Rnq1 (yeast, UniProt P25367 1-405)
T1 construct: also called FL Rnq1; Rnq1-WT
T1 sequence (looked up): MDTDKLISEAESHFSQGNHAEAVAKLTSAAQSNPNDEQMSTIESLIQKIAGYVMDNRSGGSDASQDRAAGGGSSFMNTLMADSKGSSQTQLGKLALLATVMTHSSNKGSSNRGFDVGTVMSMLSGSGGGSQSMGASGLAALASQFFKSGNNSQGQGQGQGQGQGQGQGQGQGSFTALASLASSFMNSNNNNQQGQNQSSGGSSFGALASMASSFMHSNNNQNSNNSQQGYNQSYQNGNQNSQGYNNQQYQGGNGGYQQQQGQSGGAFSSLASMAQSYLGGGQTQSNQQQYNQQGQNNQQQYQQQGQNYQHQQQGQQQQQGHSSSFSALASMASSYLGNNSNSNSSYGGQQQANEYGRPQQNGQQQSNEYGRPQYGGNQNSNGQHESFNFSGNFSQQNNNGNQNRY


What was measured:
full-length Rnq1 = molecular target: T1, full-length Rnq1; experiment: ELISA; denatured substrate (FL Rnq1 or ΔN Rnq1 400 ng, luciferase 100 ng) immobilised in microtiter wells; dilutions of Sis1-WT or mutants (0-20 or 0-25 nM) in PBS-T with 0.5% BSA, overnight at room temperature; retained Sis1 detected with an anti-Sis1 antibody; details: both partners purified
Ssa1-WT = molecular target: T2, Ssa1-WT (yeast, UniProt P10591 1-642); experiment: ELISA; Ssa1 (200 nM) immobilised in microtiter wells; dilutions of Sis1-WT or mutants (0-50 nM); bound Sis1 detected with an anti-Sis1 antibody; no client; details: both partners purified
T2 construct: Ssa1, yeast Hsp70; Cloned into pPROEx-Htb; cleavage of the tag follows from 'the remaining purification steps were analogous to those for Sis1-WT'; also called Hsp70; source: E. coli Rosetta 2(DE3), purified (Talon resin, steps analogous to Sis1)
T2 sequence (P10591 whole entry): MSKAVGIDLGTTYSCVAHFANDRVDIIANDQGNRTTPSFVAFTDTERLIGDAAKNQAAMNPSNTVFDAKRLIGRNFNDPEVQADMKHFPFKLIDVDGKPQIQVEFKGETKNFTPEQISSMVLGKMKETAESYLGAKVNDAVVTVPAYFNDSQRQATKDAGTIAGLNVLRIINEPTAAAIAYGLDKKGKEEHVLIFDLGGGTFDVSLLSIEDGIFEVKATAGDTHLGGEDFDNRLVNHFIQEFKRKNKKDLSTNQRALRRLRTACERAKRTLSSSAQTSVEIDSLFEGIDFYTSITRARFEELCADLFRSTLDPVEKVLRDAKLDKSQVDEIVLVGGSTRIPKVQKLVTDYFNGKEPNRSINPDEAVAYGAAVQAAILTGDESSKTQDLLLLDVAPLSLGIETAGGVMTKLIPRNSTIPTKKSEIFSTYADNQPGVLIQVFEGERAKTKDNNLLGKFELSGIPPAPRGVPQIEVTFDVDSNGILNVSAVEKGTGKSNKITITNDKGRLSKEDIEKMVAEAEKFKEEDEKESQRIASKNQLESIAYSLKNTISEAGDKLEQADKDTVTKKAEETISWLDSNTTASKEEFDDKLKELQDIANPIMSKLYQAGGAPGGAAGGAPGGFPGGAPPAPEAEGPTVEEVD

| binding result (full-length Rnq1) | binding result (Ssa1-WT) | Binder |
| --- | --- | --- |
| binds | binds | Sis1-E53A (natural protein, yeast, UniProt P25294 1-352, looked up, Sis1, essential yeast DNAJ (Hsp40) protein, with the J-domain mutation E53A; also called homologous to DNAJB6-E54A; LGMDD1 J-domain mutant; source: E. coli Lemo21(DE3), purified (Talon cobalt resin, TEV cleavage, second Talon pass)) MVKETKLYDLLGVSPSANEQELKKGYRKAALKYHPDKPTGDTEKFKEISEAFAILNDPQKREIYDQYGLEAARSGGPSFGPGGPGGAGGAGGFPGGAGGFSGGHAFSNEDAFNIFSQFFGGSSPFGGADDSGFSFSSYPSGGGAGMGGMPGGMGGMHGGMGGMPGGFRSASSSPTYPEEETVQVNLPVSLEDLFVGKKKSFKIGRKGPHGASEKTQIDIQLKPGWKAGTKITYKNQGDYNPQTGRRKTLQFVIQEKSHPNFKRDGDDLIYTLPLSFKESLLGFSKTIQTIDGRTLPLSRVQPVQPSQTSTYPGQGMPTPKNPSQRGNLIVKYKVDYPISLNDAQKRAIDENF |
| binds | binds | Sis1-N56L (natural protein, yeast, UniProt P25294 1-352, looked up, Sis1, essential yeast DNAJ (Hsp40) protein, with the J-domain mutation N56L; also called homologous to DNAJB6-S57L; LGMDD1 J-domain mutant; source: E. coli Lemo21(DE3), purified (Talon cobalt resin, TEV cleavage, second Talon pass)) MVKETKLYDLLGVSPSANEQELKKGYRKAALKYHPDKPTGDTEKFKEISEAFEILLDPQKREIYDQYGLEAARSGGPSFGPGGPGGAGGAGGFPGGAGGFSGGHAFSNEDAFNIFSQFFGGSSPFGGADDSGFSFSSYPSGGGAGMGGMPGGMGGMHGGMGGMPGGFRSASSSPTYPEEETVQVNLPVSLEDLFVGKKKSFKIGRKGPHGASEKTQIDIQLKPGWKAGTKITYKNQGDYNPQTGRRKTLQFVIQEKSHPNFKRDGDDLIYTLPLSFKESLLGFSKTIQTIDGRTLPLSRVQPVQPSQTSTYPGQGMPTPKNPSQRGNLIVKYKVDYPISLNDAQKRAIDENF |
| binds | binds | Sis1-S49V (natural protein, yeast, UniProt P25294 1-352, looked up, Sis1, essential yeast DNAJ (Hsp40) protein, with the J-domain mutation S49V; also called homologous to DNAJB6-A50V; LGMDD1 J-domain mutant; source: E. coli Lemo21(DE3), purified (Talon cobalt resin, TEV cleavage, second Talon pass)) MVKETKLYDLLGVSPSANEQELKKGYRKAALKYHPDKPTGDTEKFKEIVEAFEILNDPQKREIYDQYGLEAARSGGPSFGPGGPGGAGGAGGFPGGAGGFSGGHAFSNEDAFNIFSQFFGGSSPFGGADDSGFSFSSYPSGGGAGMGGMPGGMGGMHGGMGGMPGGFRSASSSPTYPEEETVQVNLPVSLEDLFVGKKKSFKIGRKGPHGASEKTQIDIQLKPGWKAGTKITYKNQGDYNPQTGRRKTLQFVIQEKSHPNFKRDGDDLIYTLPLSFKESLLGFSKTIQTIDGRTLPLSRVQPVQPSQTSTYPGQGMPTPKNPSQRGNLIVKYKVDYPISLNDAQKRAIDENF |
